Earlier results on 1 molecule are cited in US20240158457A1, “INTERLEUKIN-18 RECEPTOR BINDING POLYPEPTIDES AND USES THEREOF” (Medikine, Inc., priority 2022, published 2024).

The target in the data set is T1, IL-18 (Homo sapiens, UniProt Q14116).
T1 sequence (Q14116 37-193): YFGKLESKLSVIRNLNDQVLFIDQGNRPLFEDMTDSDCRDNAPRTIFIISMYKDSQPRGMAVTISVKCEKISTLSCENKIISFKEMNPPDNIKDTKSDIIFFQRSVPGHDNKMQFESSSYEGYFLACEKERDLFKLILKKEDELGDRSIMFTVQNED
Particulars: background; read-out: affinity for IL-18.

B1: IL-18BP: IL-18 binding protein, decoy receptor; IL-18BP Fc fusion (Acro #ILP-H5253) (protein)
chain: TPVSQTTTAATASVRSTKDPCPSQPPVFPAAKQCPALEVTWPEVEVPLNGTLSLSCVACSRFPNFSILYWLGNGSFIEHLPGRLWEGSTSRERGSTGTQLCKALVLEQLTPALHSTNFSCVLVDPEQVVQRHVVLAQLWAGLRATLPPTQEALPSSHSSPQQQG
modifications: left off: a dimerising Fc or GST
Turning to B1, the Kd is approximately 0.4 nM.
